assay: label from the status in PepcDB records

Sequence | protein production
MDPLNLSWYDDDLERQNWSRPFNGSDGKADRPHYNYYATLLTLLIAVIVFGNVLVCMAVSREKALQTTTNYLIVSLAVADLLVATLVMPWVVYLEVVGEWKFSRIHCDIFVTLDVMMCTASILNLCAISIDRYTAVAMPMLYNTRYSSKRRVTVMISIVWVLSFTISCPLLFGLNNADQNECIIANPAFVVYSSIVSFYVPFIVTLLVYIKIYIVLRRRRKRVNTKRSSRAFRAHLRAPLKGNCTHPEDMKLCTVIMKSNGSFPVNRRRVEAARRAQELEMEMLSSTSPPERTRYSPIPPSHHQLTLPDPSHHGLHSTPDSPAKPEKNGHAKDHPKIAKIFEIQTMPNGKTRTSLKTMSRRKLSQQKEKKATQMLAIVLGVFIICWLPFFITHILNIHCDCNIPPVLYSAFTWLGYVNSAVNPIIYTTFNIEFRKAFLKILHC | failed
MDPNKVEISRLEALPQDLLREIVAKIGVKSAEDYHNCILSCKELGASANDERVLKTLNLALLVKKPLSCRKHLLIMKKCLANNNPDAHYIKGIIWYFNLDHCDVDLHHIGIAANGGQKEAIYMYAMLLLCRGRTEEGKTYMSQLEWAKTPPWLKRVGNKSKLH | failed
MDPRKVNELRAFVKMCKQDPSVLHTEEMRFLREWVESMGGKVPPATQKAKSEENTKEEKPDSKKVEEDLKADEPSSEESDLEIDKEGVIEPDTDAPQEMGDENAEITEEMMDQANDKKVAAIEALNDGELQKAIDLFTDAIKLNPRLAILYAKRASVFVKLQKPNAAIRDCDRAIEINPDSAQPYKWRGKAHRLLGHWEEAAHDLALACKLDYDEDASAMLKEVQPRAQKIAEHRRKYERKREEREIKERIERVKKAREEHERAQREEEARRQSGAQYGSFPGGFPGGMPGNFPGGMPGMGGGMPGMAGMPGLNEILSDPEVLAAMQDPEVMVAFQDVAQNPANMSKYQSNPKVMNLISKLSAKFGGQA | failed
MDPVLLLSALLLLAFGLIGVGTAEPGLLQDHLLRVGAALLALVLGHLLPPRLLLRYALHALVGVLLLLVLVLLVGDGPGGVRRWFYLGPVALQPSELAKLALILYLSSFVGRRGEDYPILGPVLAVGSLVGLVLVEPDFATAAFLAGLAVLLFVLAGIPWPRLLGMGLAVALVVLPFSGLYLAQFRYVSERFANFVDYLQGESEPGGGAYQVVQAKKALLLGGPFGQGPGATLPHLPEAHNDMVFASVVFATGWLGGAVVFLLYTLILLRSLAVGLALKGGERLLALGLGLYLALQAALNIGVTLGVLPVTGVPLPLVSYGGSSLLVSGFAVGLLSRLAREAAERPRRKGVAR | failed
MDQNVPISKKLWNIVRFLLYMIRKGVSKNKLIADFNATLKRGKNLMFHQRRRVHAGSTASAALNATSATASSRQEYEFSCSNTPNYSFPFSNMAFMRKKSHNNLFTCGQTPQTLDDDVAAARAVLELLNGVGEKGNVTPADLTVALSPYFPGFGQTPLVRPLRVTDSPFPLTPENGDVANGHVDKAADDFIKKFYKNLNQQKKMIEFS | failed
MDQSTLRHRITDQFSYRGERADIWRAFDLLFDTDEFLNLGYSEWYQPHIAGSSQRRLVTEVGSRVASHLPTTDGVRLLDVGCGRGGPALHLAYQFGFNVTGVDLVPYNIQMATENARGKHLDSEFIIGDATQLPFTRDSFTACTAIDALVYLPERNRVFATVADTLEPEGVLVVSDLVMQSDVTETERRLVDSFADAWDMPSLGTVEGYKAALDETSFELKAVEDITKHSVGRFRKWTTLYLQLLTSPLRALIERLLGAYDLDPPAITEQVRKAHHALPFLRHVIFVAELETT | failed
MDRDELVRYLDAYLRIQDFPQDPSLNGLQVEGKRTVRKVGAAVDAGEAIFRKALEEEVDFLIVHHGLFWGKPFPIVGHHKRRLETLFQGGINLYAAHLPLDAHEEVGNNFVLARELGLVDLTPWDVGVKGRFPQPTPLLQVADRLGQLTGMQPLVHQGGLDHVETVILVSGSGTGLLPKVDADLFVTGEPKHSVFHETFERGLNVIYAGHYDTETFGVKALAAHLEARFGLPWVFLDHPTGL | not failed
MDRDSSMQAKNLDAQCNPDLKMASANSETLASATHELKIMDVEGGALVDPDHIEEVETSMVIVVDDDDGDVAMVVEEDKHPMRDDPCIEDIMDDEHAPLVAELQSALNNPDDKQASEDPLLEDQEREPDAMSTKTEPSSDAESSHSYHDPMGLLERIEIHDPGDSQDDDDEDDESSNGGGVDGGMRRKMPRAQRWLLWMKRWPWILHEDSDGTLAFCLYCNISINVNNRSRHIQQHNVSLSHQERECNYLAFKKSEEETRGAISDNEIKHEFGTKSYVAAMKQKRISETEAFNNFNWLRWLRWHPWLERSMPTGTIGTCRICSVRMNVEFVYLRKRHETTKGHMEALRNLDSDKRSRKRKRSKSNSVTNSGGDEAEREKESEPEVGPEDAQDTPVVMMNGDVDSGDDPGKWCALIPDTNPQQCRCTLCNCTMAITSFLRHCKTRAHCHMLSTPAEKGSSDIRGIWAVFADMHPWLIADPEDPSIGYCSVCRKRFMYGNSEIKRKNHEKSEKHTLALASAKAGIEVGSADGRGGDNMDEEEAAASDQAQSSQTDDSEDNDDDNWSEIQKLGKGFAHKSSSEPRKATVRAGVRFYPWLCYSKDRKTQICKFCRVRFHNEAAKARHELSARHVKLVKQFKMRQAKLHQGTNTQTKHNAQDDEESQEQDEEYGEEEEDAEEDSQSNFDLGTVQARKTARADNKLFVKPIPATMKGKVMVWKGRFPWLSYKKNEQRGNYAWCKLCEVSLYLPSSKWASKHQRTSRHIRLRIDRKRNGGNPLKTSNKNSGEISTVVATASALASAEARQKAAMAELQAKYDWLDPDANDENHCHCRVCDSRLPIKVFYLRQHDASRKHVENKERQRANAAAAANAPSVSPTSTVDAERQESGMDKESENDMSVRSDGSTAEPLAKRSRRSMEVRRIIRALRDSMGKRQEERSQMDMARDMICSSFDIVTRLRTLERESVAHNESMAQAPPSVTVSPIKPPEPRHVMDLFFDSISPTMKSLPPDLAAEGKSKIMQLVCSLELRAMQRNATTPTPATVSASSKWPSSTTVTPVKTPPAPISAPLASVDADLHSSVVTTPHEYNNGQNNNNDKETVPKEPVTGASSAQVTINGSAKDLPENIRRILTSNQTQVTNRLETDSVRCVPLDKLTTQSRTNVNGRLSQGGTSEAPSTPQADLSNGNTLAMIRQIRVNNNNSSKITVTNTPQMQQPQQAQASITSSTPIMRGGPSSNGCQITTFRTMVNHNRRP | failed
MDREQVVALQHQRFAAKKYDPNRRISQKDWEALVEVGRLAPSSIGLEPWKMLLLKNERMKEDLKPMAWGALFGLEGASHFVIYLARKGVTYDSDYVKKVMHEVKKRDYDTNSRFAQIIKNFQENDMKLNSERSLFDWASKQTYIQMANMMMAAAMLGIDSCPIEGYDQEKVEAYLEEKGYLNTAEFGVSVMACFGYRNQEITPKTRWKTEVIYEVIE | not failed
MDRHEYEHRIINRIVENHGRDTRQLLSILREVQHEFRQVSPEAQQKVAESLGVCITQVRAVVDFYSFLSTVPLGKFDIRISDSITDHMLGSREVAAGLCRKLGIQPGEPRQDGRVGLSFTSCTGLCDQGPAGLINGYAIPRLTEDRTDQIARLINDDIPLGEWPEEFFAIKENIRLADRLLGNPVRPGEALERTLALDRETMFGEIETSQLRGRGGAGFNTAWKWRFCYEGPETAAVCPPGQPAAGIERYVVCNADEGEPGTFKDRVLLQSCADQVFEGMTVCAYLVGAKQGFLYLRGEYLYLHDQLEAVLAARRRHGLLGKSILGREGFDFDIEIRLGAGAYICGEESALIESLEGNRGVPRNRPPYPVTHGYLGKPTVVNNVETFFAAAAIAVHGGEWFAEVGTEKSKGTKLLSICGDCARPGIYEYPFGVTIRQVLEDCGAADVLGVQIGGPSGTFLSDKECDRKLAYEDLATGGSFIVFDRTRDVIGIARNFTHFFAHESCGFCTPCRVGTALLKNLLDKIAEGHGATGDLAELSRLGRFVRSASHCGLGQTAANPILSTLERYPEIYQARLKTIDFEPGFDLDGALATARRLSGRDDANAHLSQS | failed
MDRSLQSTHAKLVARDIQRLTQSPTESNSFSLLGGACVSRVEIVGTIVSRDLTPKFLKFGVDDGTGCVTCVMWLNQLTSSYFSRWDPATILLLASAARKQAAQIRIGAVARVRGRVGSYRGVMQITANVAVAERDPNAEILHWLECLKLGQSCYRVRIQS | failed
MDRTEQKSIIEGLLFVSGDEGIYPEQIAKVLEIEGNEVIDILEEMQKECEGAHRGLQIVQYAKVYRFATKKEHASYYQKLIEIPTAASLSQAALETLAIVAYRQPITRTEMEEIRGVKTDKALQTLVSHLLIKEMGRAEGPGRPILYGTTKEFLDTFGLKTLDDLPPLSEENEQMNEADLFFGSLQEISK | failed
